According to patent US20200040103A1:

Columns and labels:
[1] = target: recombinant human KLK5 (human), Q9Y337; experiment: cell-based or functional assay
[2] = target: recombinant human KLK5 (human) (UniProt Q9Y337); experiment: cell-based or functional assay
[3] = target: recombinant human KLK5 (human) (UniProt Q9Y337); experiment: array SPR imaging (IBIS MX96), antibody amine-coupled, human KLK5 injected 0-300 nM, 25 C
[4] = target: recombinant human KLK5 (human) (UniProt Q9Y337); experiment: pro-KLK7 LC/MS assay, 5 nM KLK5
[5] = target: recombinant human KLK5 (human) (UniProt Q9Y337); experiment: pro-KLK7 coupled assay, 5 nM KLK5
[6] = target: recombinant human KLK5 (human) (UniProt Q9Y337); experiment: pro-KLK1 LC/MS assay, 0.5 nM KLK5
[7] = target: recombinant human KLK5 (human) (UniProt Q9Y337); experiment: Kiapp assay curve, 0.125 nM KLK5, Z-VPR-pNA
[8] = target: recombinant human KLK5 (human) (UniProt Q9Y337); experiment: Kiapp assay curve, 0.250 nM KLK5, Z-VPR-pNA
[9] = target: recombinant human KLK5 (human) (UniProt Q9Y337); experiment: Kiapp assay curve, 0.500 nM KLK5, Z-VPR-pNA
[10] = target: recombinant human KLK5 (human) (UniProt Q9Y337); experiment: Kiapp assay curve, 0.063 nM KLK5, Z-VPR-pNA
[11] = target: recombinant human KLK5 (human) (UniProt Q9Y337); experiment: pro-KLK1 coupled assay, 0.5 nM KLK5
[12] = target: recombinant human KLK5 (human) (UniProt Q9Y337); experiment: Kiapp, KLK5 0.5-0.0625 nM, Z-VPR-pNA
[13] = target: recombinant human KLK5 (human) (UniProt Q9Y337); experiment: KLK5 direct activity assay, 5 nM KLK5, Boc-VPR-AMC
[14] = target: recombinant human KLK5 (human) (UniProt Q9Y337); experiment: direct activity assay, 5 nM KLK5, Boc-VPR-AMC
[15] = target: recombinant human KLK5 (human) (UniProt Q9Y337); experiment: pro-KLK1 coupled assay, 0.5 nM KLK5, 31.25 nM pro-KLK1, PFR-AMC
[16] = target: recombinant human KLK5 (human) (UniProt Q9Y337); experiment: pro-KLK7 coupled assay, 5 nM KLK5, 125 nM pro-KLK7, suc-LLVY-AMC
[17] = target: recombinant human KLK5 (human) (UniProt Q9Y337); experiment: pro-KLK7 LC/MS assay, 5 nM KLK5, 15 nM pro-KLK7, nM
[18] = target: recombinant human KLK5 (human) (UniProt Q9Y337); experiment: Kiapp as the y-intercept of the line of IC50 (nM) versus KLK5 (nM), Z-VPR-pNA
[19] = target: recombinant human KLK5 (human) (UniProt Q9Y337); experiment: pro-KLK1 LC/MS assay, 0.5 nM KLK5, 300 nM pro-KLK1; box column 2 of 3; no unit printed, nM per text
[20] = target: recombinant human KLK5 (human) (UniProt Q9Y337); experiment: pro-KLK1 LC/MS assay, 0.5 nM KLK5, 300 nM pro-KLK1; box column 3 of 3; no unit printed, nM per text
[21] = target: recombinant human KLK5 (human) (UniProt Q9Y337); experiment: pro-KLK1 LC/MS assay, 0.5 nM KLK5, 300 nM pro-KLK1; box column 1 of 3; no unit printed, nM per text
[22] = target: recombinant human KLK5 (human) (UniProt Q9Y337); experiment: SPR BIAcore T200, antibody captured by anti-human Fc, human KLK5 as analyte, 37 C

Sequence of recombinant human KLK5 (human) (Q9Y337 67-293): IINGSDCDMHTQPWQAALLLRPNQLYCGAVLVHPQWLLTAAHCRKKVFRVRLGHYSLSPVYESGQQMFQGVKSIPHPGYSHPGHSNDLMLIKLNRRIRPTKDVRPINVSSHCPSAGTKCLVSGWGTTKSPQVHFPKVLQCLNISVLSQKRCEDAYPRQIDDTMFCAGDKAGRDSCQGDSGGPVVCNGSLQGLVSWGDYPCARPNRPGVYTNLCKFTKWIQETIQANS
Sequence of recombinant human KLK5 (human), Q9Y337 (Q9Y337 67-293): as above

inhibition of human KLK5 (screening) [2] [%] | koff [3] [s⁻¹] | IC50 [4] [nM] | IC50 [5] [nM] | IC50 [6] [nM] | IC50 (read off the curve) [7] [nM] | IC50 (read off the curve) [8] [nM] | IC50 (read off the curve) [9] [nM] | IC50 (read off the curve) [10] [nM] | IC50 [11] [nM] | Ki [12] [nM] | IC50 (read off the curve) [13] [nM] | IC50 [14] [nM] | IC50 (read off the curve) [15] [nM] | IC50 (read off the curve) [16] [nM] | IC50 [17] [nM] | Ki [18] [nM] | IC50 [19] [nM] | IC50 [20] [nM] | IC50 [21] [nM] | further results | Binder
– | – | – | – | – | – | – | – | – | – | – | – | – | – | – | – | – | – | – | – | inhibition of human KLK5 (screening) [1]: < 50% | 12B3 (antibody, V domains shown) VH: QSLEESGGGLVKPGGTLTLTCKASGIDFNGGGIYWVRQAPGKGLEWIASIYPDHGSVDYANWVNGRFTISLDNAQNTVFLQLTSLTVADTATYFCARESGGSYYDLWGPGTLVTVSS VL: AYDMTQTPASVEVAVGGTVTIKCQASQSISTYLAWYQQKPGQRPNLLIYKTSTLASGVPSRFRGSGSGTQFTLTISGVECADAATYYCQQGYSGSSVENTFGGGTEVVVK
– | – | – | – | – | – | – | – | – | – | – | – | – | – | – | – | – | – | – | – | inhibition of human KLK5 (screening) [1]: < 50% | 1D10 (antibody, V domains shown) VH: QSLEESGGGLVKPGGTLTLTCTASGFDFNGGGIYWVRQAPGKGLEWIAYIYPDHGSADYATWVNGRFTISLDNAQNTVFLQMTSLTVADTATYFCARETGGSWYDLWGPGTLVTVSS VL: AYDMTQTPVSVEAAVGGTVTIKCQASQSISSYLAWYQQKPGQPPKLLIYKASTLASGVSSRFKGSGSGTEFTLTISDLECADAATYYCQQGYSGSNVENTFGGGTEVVVK
< 90 | 0.000376 | – | – | – | – | – | – | – | – | – | – | – | – | – | – | – | – | – | – | – | 14C8 (antibody, V domains shown) VH: EVQLVESGGGLVQPGRSLKLSCTASGFTFSDYNMAWVRQAPKGGLEWVTTISYDAGRTYYRDSVKGRFTISRDNAKRTLSLQMDSLRSEDTATYYCATGIFNYGTDYFDYWGQGVMVTVSS VL: DIQMTQSPASLSASLGETVTIQCRASEDIYSGLAWYQQKPGKSPQLLIYGATTLHDGVPSRFSGSGSGTQYSLKISSMHSEDEGIYFCHQGLSFPYTFGAGTKLELK
< 90 | 0.000414 | – | – | – | – | – | – | – | – | – | – | – | – | – | – | – | – | – | – | – | 14E12 (antibody, V domains shown) VH: EVQLVESGGGLVRPGRSLRLSCAASGFTFSDYYMAWVRQAPTKGLEWVASISYDGDTTYYRDSVKGRFTISRDNARSSLYLQMDSLRSDDTANYFCTTDGTIPAGSWFAYWGQGTLVTVSS VL: DIQMTQSPASLSASLGETVTIECLASKNIYRNLAWYQQKPGKSPQFLISDASRLQDGVPSRFTGSDSGSQYSLKINSLQSEDVATYFCQQYHDYPYTFGAGTKLELK
< 90 | 0.000202 | – | – | – | – | – | – | – | – | – | – | – | – | – | – | – | – | – | – | – | 8E11 (antibody, V domains shown) VH: QEQLEESGGDLVKPEGSLTLTCTASGFSFSSSYWICWVRQAPGKGLEWIACVYGLDVNIYYASWTKGRFTISKTSSTTVTLQMTSLTAADTATYFCARGGGSADFGFDLWGPGTLVTVSS VL: DVVMTQTASPVSAAVGGTVTIKCQASENIYSLLAWYQQKPGQPPKVLIYDASDLASGVPSRFKGSGSGTQFTLTISDLECADAATYYCQATAYGSSGNAFGGGTEVVVK
– | 0.000547 | 1.29 | 0.92 | 0.09 | 0.2 | 0.2 | 0.2 | 0.2 | 0.125 | 0.32 | 1 to 2 | 1.1 | 0.1 | 1 | 1.29 | 0.264 | 0.132 | 0.106 | 0.0473 | – | 8B7 (antibody, V domains shown) VH: QSVKESEGGLFKPTDNLTLTCTVSGFSLSNYGVTWVRQAPGNGLEYIGFIGSSGSAYYASWAKSRSTITRNTNLNTVTLKMTSLTAADTATYFCARDDVGGGKSLDIWGPGTLVTVSS VL: NIVMTQTPASVEVAVGGTVTIKCQASQSIGSYLSWYQQKPGQPPKLLIYDASNLASGVPSRFKGSGSGTQFTLSISDLECADAATYYCHQDYTSNNVDNTFGGGTEVVIK
– | 0.000367 | 1.68 | 0.87 | 0.19 | 0.2 | 0.2 | 0.3 | 0.2 | 0.139 | 0.425 | 0.8 | 1.08 | 0.1 to 0.2 | 0.8 | 1.68 | 0.402 | 0.343 | 0.102 | 0.138 | Kd [22]: 0.193 nM; koff [22]: 0.000137 s⁻¹; kon [22]: 705000 M⁻¹ s⁻¹ | 9H5 (antibody, V domains shown) VH: QSVKESEGGLFKPTDNLTLTCTVSGFSLSSYGVSWVRQAPGNGLEYIGFIGSGGFAYYASWAKSRSTITRNTNLNTVTLKMTSLTAADTATYFCARDDVGGGKSLDIWGPGTVVTVSV VL: NIVMTQTPASVEAAVGGTVTINCQASQSISSYLSWYQQKSGQRPKLLIFSASTLASGVPSRFTGSGSGTQFTLTISDLQCADAATYYCHQDYTSSNVDNTFGGGTEVVVK
– | 6.16e-05 | 1.8 | 1.16 | 0.14 | 0.2 | 0.2 | 0.2 | 0.2 | 0.151 | 0.265 | 0.9 | 0.89 | 0.1 to 0.2 | 1 | 1.8 | 0.277 | 0.225 | 0.149 | 0.0587 | – | 10C8 (antibody, V domains shown) VH: QSVKESEGGLFKPTDNLTLTCTVSGFSLSSYGVSWVRQAPGNGLEYIGFIGSGGFAYYASWAKSRSTITRNTNLNTVTLKMTSLTAADTATYFCARDDVGGGRSLDIWGPGTVVTVSS VL: NIVMTQTPASVEVAMGGTVIIKCQASQSISTYLSWYQQKPGQPPKLLIYSASTLASGVSSRFEGSGSGTQFTLTISGVQCADAATYYCHQDYTSNNVDNTFGGGTEVVVK
– | 0.000339 | 1.26 | 0.93 | 0.14 | 0.2 | 0.2 | 0.3 | 0.2 | 0.137 | 0.43 | 1 to 2 | 1.01 | 0.1 to 0.2 | 0.9 | 1.26 | 0.377 | 0.137 | 0.18 | 0.108 | – | 9F2 (antibody, V domains shown) VH: QSVKESEGGLFKPTDNLTLTCTVSGFSLSSYGVSWVRQAPGNGLEYIGFIGSGGSPYYASWAKSRSTITRNTNLNTVTLKMTSLTAADTATYFCARDDVGGGKSLDIWGPGTLVTVSS VL: NIVMTQTPASVEVAVGGTVIIKCQASQSISNYLSWYHQKSGQRPRLLIYSASTLASGVPSRFKGSGSGTQFTLTISDLECADAATYYCHQDYTSNSVDNTFGGGTEVVVK
– | 0.000589 | 0.97 | 1.17 | 0.08 | 0.3 | 0.3 | 0.4 | 0.2 | 0.122 | 0.51 | 1 | 1.09 | 0.1 | 1 | 0.968 | 0.393 | 0.116 | 0.13 | 0.00485 | – | 10H3 (antibody, V domains shown) VH: QSVKESEGGLIKPTDTLTLTCTVSGFSLSTFAINWVRQAPGNGLEWIGAIGRGGSAYYASWAKSRSTITKNTNLNTVTLKMTRPTAADTATYFCARENAGSGWGELDIWGPGTLVTVSS VL: AYEMTQTPASVEVAVGGTVTINCQASESISSDLAWYQQKPGQRPKLLIYAASTLASGVPSRFKGSGSGTEFTLSISGVQCADAATYYCQQGYTWNNVDNVFGGGTEVVVK
